{
  "source": "patent US7657380",
  "binders": {"B1": {"name": "C225 L2/H5 full length antibody (antibody, IgG1, V domains shown)", "VH": "QVQLQQSGPGLVKPSQTLSLTCTVSGFSLTNYGVHWVRQAPGKGLEWLGVIWSGGNTDYNTPLTSRLTINKDNSKSQVVLQMNSLRAEDTAVYYCARALTYYDYEFAYWGQGTLVTVSS", "VL": "DILLTQSPATLSLSPGERVTLSCRASQSIGTNIHWYQQKPDQSPKLLIKYASESISGIPSRFSGSGSGTDFTLTISSLQPEDFADYYCQQNNNWPTTFGAGTKLEIK"}, "B2": {"name": "C225 L2/H6 full length antibody (antibody, IgG1, V domains shown)", "VH": "B1 VH with L48V, P62S, L63V, T64K, S65G, L67F, N70S, V79Y", "VL": "B1 VL"}, "B3": {"name": "AC10 H1/L3 full length antibody (antibody, V domains shown)", "VH": "QIQLVQSGPEVKKPGASVKVSCKASGYTFTDYYITWVRQAPGQGLEWMGWIYPGSGNTKYNEKFQGRVTITVDTSASTAYMELSSLRSEDTAVYFCANYGNYWFAYWGQGTLVTVSS", "VL": "DIVLTQSPDSLAVSLGERATINCKASQSVDFDGDSYMNWYQQKPGQPPKVLIYAASNLESGIPARFSGSGSGTDFTLTINSLEAEDAATYYCQQSNEDPWTFGGGTKVEIK"}, "B4": {"name": "AC10 H1/L0 full length antibody (antibody, V domains shown)", "VH": "B3 VH", "VL": "B3 VL with D9A, E17Q, N22S, T78N, N80H, S81P, L82V, A84E, V108L"}, "B5": {"name": "AC10 H1/L1 full length antibody (antibody, V domains shown)", "VH": "B3 VH", "VL": "DIVLTQSPATLSLSPGERATLSCRASQSVDFDGDSYMNWYQQKPGQPPKVLIYAASNLESGIPARFSGSGSGTDFTLTISSLQPEDFATYYCQQSNEDPWTFGGGTKVEIK"}, "B6": {"name": "AC10 H1/L2 full length antibody (antibody, V domains shown)", "VH": "B3 VH", "VL": "B5 VL with A9S, T10S, L13A, P15V, E17D, A19V, L21I, S22T"}, "B7": {"name": "AC10 H2/L3 full length antibody (antibody, V domains shown)", "VH": "QIQLVESGGGLVKPGGSLRLSCAASGYTFTDYYITWVRQAPGQGLEWMGWIYPGSGNTKYNEKFQGRVTMTVDTSTSTAYMELSSLRSEDTAVYFCANYGNYWFAYWGQGTLVTVSS", "VL": "B3 VL"}, "B8": {"name": "AC10 H3/L3 full length antibody (antibody, V domains shown)", "VH": "B3 VH with V68F, T69V, I70F, T71S, M81L, E82Q, L83I, R87K, S88A", "VL": "B3 VL"}, "B9": {"name": "AC10 H3/L0 full length antibody (antibody, V domains shown)", "VH": "B3 VH with V68F, T69V, I70F, T71S, M81L, E82Q, L83I, R87K, S88A", "VL": "B3 VL with D9A, E17Q, N22S, T78N, N80H, S81P, L82V, A84E, V108L"}, "B10": {"name": "AC10 H3/L1 full length antibody (antibody, V domains shown)", "VH": "B3 VH with V68F, T69V, I70F, T71S, M81L, E82Q, L83I, R87K, S88A", "VL": "B5 VL"}, "B11": {"name": "AC10 H3/L2 full length antibody (antibody, V domains shown)", "VH": "B3 VH with V68F, T69V, I70F, T71S, M81L, E82Q, L83I, R87K, S88A", "VL": "B5 VL with A9S, T10S, L13A, P15V, E17D, A19V, L21I, S22T"}, "B12": {"name": "AC10 H2/L1 full length antibody (antibody, V domains shown)", "VH": "B7 VH", "VL": "B5 VL"}, "B13": {"name": "AC10 H2/L0 full length antibody (antibody, V domains shown)", "VH": "B7 VH", "VL": "B3 VL with D9A, E17Q, N22S, T78N, N80H, S81P, L82V, A84E, V108L"}, "B14": {"name": "AC10 H0/L2 full length antibody (antibody, V domains shown)", "VH": "QIQLQQSGPEVVKPGASVKISCKASGYTFTDYYITWVKQKPGQGLEWIGWIYPGSGNTKYNEKFKGKATLTVDTSSSTAFMQLSSLTSEDTAVYFCANYGNYWFAYWGQGTQVTVSA", "VL": "B5 VL with A9S, T10S, L13A, P15V, E17D, A19V, L21I, S22T"}, "B15": {"name": "AC10 H0/L1 full length antibody (antibody, V domains shown)", "VH": "B14 VH", "VL": "B5 VL"}, "B16": {"name": "AC10 H0/L3 full length antibody (antibody, V domains shown)", "VH": "B14 VH", "VL": "B3 VL"}, "B17": {"name": "AC10 H2/L2 full length antibody (antibody, V domains shown)", "VH": "B7 VH", "VL": "B5 VL with A9S, T10S, L13A, P15V, E17D, A19V, L21I, S22T"}, "B18": {"name": "AC10 H3/L3.64 (antibody, IgG1, name in Kabat numbering, V domains shown)", "VH": "B3 VH with V68F, T69V, I70F, T71S, M81L, E82Q, L83I, R87K, S88A", "VL": "B3 VL with D98T"}, "B19": {"name": "AC10 H3/L3.65 (antibody, IgG1, name in Kabat numbering, V domains shown)", "VH": "B3 VH with V68F, T69V, I70F, T71S, M81L, E82Q, L83I, R87K, S88A", "VL": "B3 VL with W100F"}, "B20": {"name": "AC10 H3/L3.66 (antibody, IgG1, name in Kabat numbering, V domains shown)", "VH": "B3 VH with V68F, T69V, I70F, T71S, M81L, E82Q, L83I, R87K, S88A", "VL": "B3 VL with W100I"}},
  "note": "Positions count from the first letter of the chain named.",
  "data": [
    {"target": "EGFR extracellular domain (R&D Systems) (UniProt P00533 25-645, limits assumed)", "experiment": "SPR, full length antibody over EGFR chip", "values": [
      {"binder": "B1", "binding result": "binds"},
      {"binder": "B2", "binding result": "binds"}
    ]},
    {"target": "T1, CD30 fused to the Fc region of IgG1 (R&D Systems) (UniProt P28908 19-379)", "T1 sequence (looked up)": "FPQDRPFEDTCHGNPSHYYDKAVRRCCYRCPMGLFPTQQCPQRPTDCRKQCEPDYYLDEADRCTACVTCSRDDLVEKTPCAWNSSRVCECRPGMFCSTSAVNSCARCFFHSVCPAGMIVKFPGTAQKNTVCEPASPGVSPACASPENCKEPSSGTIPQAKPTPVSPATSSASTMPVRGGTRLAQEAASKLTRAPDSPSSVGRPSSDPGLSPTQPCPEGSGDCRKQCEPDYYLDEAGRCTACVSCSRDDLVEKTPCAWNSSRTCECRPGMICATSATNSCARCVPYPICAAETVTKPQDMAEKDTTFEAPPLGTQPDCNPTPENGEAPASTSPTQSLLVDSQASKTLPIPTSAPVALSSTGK", "experiment": "SPR, CD30-Fc on Protein A chip", "units": {"Fold KD vs WT": "fold", "Kd": "nM"}, "values": [
      {"binder": "B3", "Fold KD vs WT": 0.67, "Kd": 5.09},
      {"binder": "B4", "Fold KD vs WT": 0.53, "Kd": 6.39},
      {"binder": "B5", "Fold KD vs WT": 0.6, "Kd": 5.63},
      {"binder": "B6", "Fold KD vs WT": 0.45, "Kd": 7.55},
      {"binder": "B7", "Fold KD vs WT": 0.5, "Kd": 6.75},
      {"binder": "B8", "Fold KD vs WT": 1.45, "Kd": 2.33},
      {"binder": "B9", "Fold KD vs WT": 1.1, "Kd": 3.08},
      {"binder": "B10", "Fold KD vs WT": 1.39, "Kd": 2.44},
      {"binder": "B11", "Fold KD vs WT": 1.19, "Kd": 2.86},
      {"binder": "B12", "Fold KD vs WT": 0.36, "Kd": 9.49},
      {"binder": "B13", "Fold KD vs WT": 0.42, "Kd": 8},
      {"binder": "B14", "Fold KD vs WT": 0.97, "Kd": 3.48},
      {"binder": "B15", "Fold KD vs WT": 1.03, "Kd": 3.29},
      {"binder": "B16", "Fold KD vs WT": 1.13, "Kd": 3},
      {"binder": "B17", "Fold KD vs WT": 0.57, "Kd": 5.95}
    ]},
    {"target": "T2, human CD30 (commercial, conjugated to digoxigenin) (human, UniProt P28908 19-379, limits assumed, conjugated to digoxigenin (DIG))", "T2 sequence (looked up)": "T1 sequence (looked up)", "experiment": "AlphaScreen competition", "units": {"Fold IC50 vs H3/L3": "fold"}, "values": [
      {"binder": "B18", "Fold IC50 vs H3/L3": 0.14},
      {"binder": "B19", "Fold IC50 vs H3/L3": 0.34},
      {"binder": "B20", "Fold IC50 vs H3/L3": 0}
    ]},
    {"target": "T2, human CD30 (commercial, conjugated to …)", "experiment": "AlphaScreen competition vs biotin-WT AC10", "units": {"Fold IC50 vs WT": "fold", "IC50": "nM"}, "values": [
      {"binder": "B3", "Fold IC50 vs WT": 0.18, "IC50": 17.4},
      {"binder": "B4", "Fold IC50 vs WT": 0.32, "IC50": 9.77},
      {"binder": "B5", "Fold IC50 vs WT": 0.11, "IC50": 27.7},
      {"binder": "B6", "Fold IC50 vs WT": 0.07, "IC50": 45.3},
      {"binder": "B7", "Fold IC50 vs WT": 0.12, "IC50": 27.2},
      {"binder": "B8", "Fold IC50 vs WT": 1.59, "IC50": 1.99},
      {"binder": "B9", "Fold IC50 vs WT": 0.51, "IC50": 6.18},
      {"binder": "B10", "Fold IC50 vs WT": 0.52, "IC50": 6.09},
      {"binder": "B11", "Fold IC50 vs WT": 0.48, "IC50": 6.57},
      {"binder": "B12", "Fold IC50 vs WT": 0.06, "IC50": 55.1},
      {"binder": "B13", "Fold IC50 vs WT": 0.16, "IC50": 19.4},
      {"binder": "B14", "Fold IC50 vs WT": 0.41, "IC50": 7.81},
      {"binder": "B15", "Fold IC50 vs WT": 0.61, "IC50": 5.19},
      {"binder": "B16", "Fold IC50 vs WT": 0.69, "IC50": 4.61},
      {"binder": "B17", "Fold IC50 vs WT": 0.06, "IC50": 49.2}
    ]}
  ]
}
